According to patent US7812117B2, “Vasostatin as marrow protectant” (The United States of America as represented by the …, priority 1998, dated 2010):

How the values were obtained:
murine bone marrow cells [1] = tested on: murine bone marrow cells
[2] = tested on: fetal bovine heart endothelial cells (FBHEC); conditions: as previously reported (Pike et al., 1998; 1999); cited from earlier work
[3] = tested on: peripheral white blood cells; experiment: Peripheral white blood cell counts after total body irradiation of C57BL/6N mice; assay type: in vivo; conditions: vaso 300 μg/mouse/day s.c.
Method: In a subsequent experiment, groups of 8 week old C57BL/6N mice were irradiated with either 300 or 400 rad total body irradiation and treated the mice daily with s.c. inoculations of either buffer of vaso (300 μg/mouse/day). Peripheral white blood cell counts were obtained on days 5 and 9 post irradiation. On day 5, the total white cell count in the mice that had received 300 rad total body irradiation and had been treated with buffer was 1.2×10^3/mm^3 as opposed to 2.14×10^3/mm^3 in the mice treated with vaso. Also on day 5 post-irradiation, the total white cell count in the mice that had received 400 rad total body irradiation and had been treated with buffer was 0.66×10^3/mm^3 as opposed to 1.22×10^3/mm^3 in the mice treated with vaso. On day 9 post irradiation, the total white cell count in the mice that had received 400 rad total body irradiation and had been treated with buffer was 0.79×10^3/mm^3 as opposed to 1.37×10^3/mm^3 in the mice treated with vaso.

[4] = tested on: human umbilical vein-derived (HUVEC) endothelial cells; conditions: as previously reported (Pike et al., 1998; 1999); cited from earlier work
murine bone marrow cells [5] = experiment: Murine bone marrow cell number in culture (Owen's reagent formazan absorbance at 490 nm); assay type: cell-based, mouse
Method: FIG. 7 is a series of bar graphs showing the effects of vaso on growth-factor induced proliferation of bone marrow cells with or without methotrexate. Bone marrow cells populations, obtained from the femural cavities of C57BL/6NCR mice (3.5 months of age), were cultured in 24 well tissue culture plates in culture medium alone or medium containing a mixture of the growth factors (GF) IL-3 (20 ng/ml), IL-6 (100 ng/ml) and Stem Cell Factor (100 ng/ml). Vaso was added to the cultures at concentrations ranging between 1.25 and 10 μg/ml. Methotrexate was added to the cultures at the concentration of 100 nM. FIG. 7A is a bar graph of cell proliferation as measured by ^3H thymidine incorporation during the final 22 hr of a 7-day culture. The results reflect the mean cpm of triplicate cultures. FIG. 7B is a bar graph of cell numbers measured as mean absorbance (490 nM) after conversion of Owen's reagent into colored formazan product (One Solution Reagent, Promega).
FIG. 9 is a series of bar graphs showing that vaso increases bone marrow cell proliferation in vitro. Bone marrow cells populations, obtained from the femural cavities of C57BL/6NCR mice (8 weeks of age), were cultured in culture medium alone or in medium supplemented with a mixture of IL-3 (20 ng/ml), IL-6 (100 ng/ml) and Stem Cell Factor (SF, 100 ng/ml). […] FIG. 9A is a bar graph of cell proliferation as measured by ^3H thymidine incorporation during the final 20-23 hr of a 4, 5 or 6-day culture. FIG. 9B is a bar graph of cell number measured as absorbance (490 nM) after conversion of Owen's reagent into colored formazan product (One Solution Reagent, Promega).
In the absence of exogenously added growth factors, vaso at the highest concentration used (10 μg/ml) had low level stimulatory effect (approximately 2-fold stimulation of background cpm).
Stimulation of bone marrow cell proliferation by vaso was associated with an increased number of bone marrow cells, measured as absorbance from the conversion of Owen's reagent into a colored formazan product (One Solution Reagent, Promega, Madison. Wis.). […]

[6] = tested on: variety of cell and cell lines; experiment: Proliferation of a variety of cells and cell lines (mononuclear cells, lymphoid, tumor lines, fibroblasts); assay type: cell-based, human; conditions: vaso 0.25 to 50 μg/ml
Text: Human mononuclear cells, and mononuclear cells enriched for B or T cells, were used in proliferation assays in the presence of phytohemagglutinin(Sigma), pokeweed mitogen (Sigma) or Epstein-Barr virus (B95-8 strain), as described previously (Tosato et al., 1988). The lymphoblastoid cell line VDS-0, the Burkitt cell lines CA46, BL41, KK124, Ag876, SHO (Cherney et al., 1997), the T-cell line Molt-4 (ATCC), the Hodgkin's lymphoma cell line Hs445 (ATCC); the prostate adenocarcinoma cell lines TSU-Prl (from A. Passaniti, NIH, Baltimore, Md.), Du145 (ATCC), and PC3 (ATCC), and the acute promyelocytic leukemia cell line HL60 (ATCC) were cultured in RPMI 1640 medium with 10% heat-inactivated FCS (BioWhittaker), […] L-glutamine (Sigma) and 5 μg/ml gentamicin, and tested in 3-5 days proliferation assays at cell densities varying from 300 to 2400 cells/microwell. The neuroblastoma cell line SKNMC (ATCC) was cultured in EMEM medium BioWhittaker) with 10% heat inactivated FCS and gentamicin and tested for proliferation at 125-1000 cells/well. The lung adenocarcinoma cell line A549 (ATCC) was cultured in F-12 Nutrient Mixture (HAM, Gibco BRL) with 10% heat-inactivated FCS, gentamicin and tested for proliferation at 250-2000 cells/well. […]

B1: vaso: N-terminal domain of calreticulin (amino acids 1-180, SEQ ID NO:3); given as fusion protein with maltose binding protein, MBP-vaso (protein)
chain: EPAVYFKEQFLDGDGWTSRWIESKHKSDFGKFVLSSGKFYGDEEKDKGLQTSQDARFYALSASFEPFSNKGQTLVVQFTVKHEQNIDCGGGYVKLFPNSLDQTDMHGDSEYNIMFGPDICGPGTKKVHVIFNYKGKNVLINKDIRCKDDEFTHLYTLIVRPDNTYEVKIDNSQVESGSLE
modifications: Vasostatin
bone marrow cell proliferation induced by IL-3 at the highest dose of cisplatinum (murine bone marrow cells [1]): minimal | proliferation of primary cultures of FBHEC [2]: consistently inhibited the proliferation | total white cell count, day 5 post irradiation ([3]; 300 rad total body irradiation, buffer 1.2×10^3): 2.14×10^3 /mm^3 | total white cell count, day 5 post irradiation ([3]; 400 rad total body irradiation, buffer 0.66×10^3): 1.22×10^3 /mm^3 | total white cell count, day 9 post irradiation ([3]; 400 rad total body irradiation, buffer 0.79×10^3): 1.37×10^3 /mm^3 | proliferation of primary cultures of HUVEC [4]: consistently inhibited the proliferation | number of cells in culture (murine bone marrow cells [5]; vaso 10 μg/ml added to medium alone): increased only minimally | number of cells counted after 5 days of culture (murine bone marrow cells [5]; vaso 10 μg/ml, growth factors (IL-3, IL-6 and Stem Cell Factor) either alone or with etoposide 77 nM): increased significantly | number of living bone marrow cells in culture (murine bone marrow cells [5]; vaso with methotrexate 100 nM and growth factors): increase in the number of living bone marrow cells | effects on proliferation of a variety of cell and cell lines [6]: minimal stimulatory (or inhibitory) effects
